What was measured:
Test in all cases: cell-based or functional assay
[1] = target: HIV-1 Env of pseudovirus 6041.v3.c23 (HIV-1)
[2] = target: HIV-1 Env of pseudovirus CAP45.2.00.G3 (HIV-1)
[3] = target: HIV-1 Env of pseudovirus AC10.0.29 (HIV-1)
[4] = target: HIV-1 Env of pseudovirus 1056_10_TA11_1826 (HIV-1)
[5] = target: HIV-1 Env of pseudovirus 231965.c01 (HIV-1)
[6] = target: HIV-1 Env of pseudovirus Du422.1 (HIV-1)
[7] = target: HIV-1 Env of pseudovirus T250-4 (HIV-1)
[8] = target: HIV-1 Env of pseudovirus ZM197M.PB7 (HIV-1)
[9] = target: HIV-1 Env of pseudovirus CNE5 (HIV-1)
[10] = target: HIV-1 Env of pseudovirus MS208.A1 (HIV-1)
[11] = target: HIV-1 Env of pseudovirus 235-47 (HIV-1)
[12] = target: HIV-1 Env of pseudovirus Ce0393_C3 (HIV-1)
[13] = target: HIV-1 Env of pseudovirus CAP210.2.00.E8 (HIV-1)
[14] = target: HIV-1 Env of pseudovirus REJO4541.67 (HIV-1)
[15] = target: HIV-1 Env of pseudovirus BF1266.431a (HIV-1)
[16] = target: HIV-1 Env of pseudovirus 1054_07_TC4_1499 (HIV-1)
[17] = target: HIV-1 Env of pseudovirus BJOX009000.02.4 (HIV-1)
[18] = target: HIV-1 Env of pseudovirus 1012_11_TC21_3257 (HIV-1)
[19] = target: HIV-1 Env of pseudovirus ZM249M.PL1 (HIV-1)
[20] = target: HIV-1 Env of pseudovirus T251-18 (HIV-1)
[21] = target: HIV-1 Env of pseudovirus 191821_E6_1 (HIV-1)
[22] = target: HIV-1 Env of pseudovirus 263-8 (HIV-1)
[23] = target: HIV-1 Env of pseudovirus RHPA4259.7 (HIV-1)
[24] = target: HIV-1 Env of pseudovirus Q461.e2 (HIV-1)
[25] = target: HIV-1 Env of pseudovirus 231966.c02 (HIV-1)
[26] = target: HIV-1 Env of pseudovirus X1632_S2_B10 (HIV-1)
[27] = target: HIV-1 Env of pseudovirus CNE20 (HIV-1)
[28] = target: HIV-1 Env of pseudovirus 6240_08_TA5_4622 (HIV-1)
[29] = target: HIV-1 Env of pseudovirus P0402_c2_11 (HIV-1)
[30] = target: HIV-1 Env of pseudovirus 1006_11_C3_1601 (HIV-1)
[31] = target: HIV-1 Env of pseudovirus 62357_14_D3_4589 (HIV-1)
[32] = target: HIV-1 Env of pseudovirus 246F C1G (HIV-1)
[33] = target: HIV-1 Env of pseudovirus 6540.v4.c1 (HIV-1)
[34] = target: HIV-1 Env of pseudovirus C4118.c09 (HIV-1)
[35] = target: HIV-1 Env of pseudovirus X1254_c3 (HIV-1)
[36] = target: HIV-1 Env of pseudovirus ZM214M.PL15 (HIV-1)
[37] = target: HIV-1 Env of pseudovirus 3103.v3.c10 (HIV-1)
[38] = target: HIV-1 Env of pseudovirus 3301.v1.c24 (HIV-1)
[39] = target: HIV-1 Env of pseudovirus THRO4156.18 (HIV-1)
[40] = target: HIV-1 Env of pseudovirus Du172.17 (HIV-1)

PGT121 (antibody)
IC50 in TZM-bl assay [1]: > 10 µg/mL
IC80 in TZM-bl assay [1]: > 10 µg/mL
IC50 in TZM-bl assay [2]: 1.3 µg/mL
IC80 in TZM-bl assay [2]: > 10 µg/mL
IC50 in TZM-bl assay [3]: 0.019 µg/mL
IC80 in TZM-bl assay [3]: 0.06 µg/mL
IC50 in TZM-bl assay [4]: 0.034 µg/mL
IC80 in TZM-bl assay [4]: 0.148 µg/mL
IC50 in TZM-bl assay [5]: > 10 µg/mL
IC80 in TZM-bl assay [5]: > 10 µg/mL
IC50 in TZM-bl assay [6]: 0.017 µg/mL
IC80 in TZM-bl assay [6]: 0.088 µg/mL
IC50 in TZM-bl assay [7]: 0.003 µg/mL
IC80 in TZM-bl assay [7]: 0.009 µg/mL
IC50 in TZM-bl assay [8]: > 10 µg/mL
IC80 in TZM-bl assay [8]: > 10 µg/mL
IC50 in TZM-bl assay [9]: > 10 µg/mL
IC80 in TZM-bl assay [9]: > 10 µg/mL
IC50 in TZM-bl assay [10]: > 10 µg/mL
IC80 in TZM-bl assay [10]: > 10 µg/mL
IC50 in TZM-bl assay [11]: 0.259 µg/mL
IC80 in TZM-bl assay [11]: 1.6 µg/mL
IC50 in TZM-bl assay [12]: > 10 µg/mL
IC80 in TZM-bl assay [12]: > 10 µg/mL
IC50 in TZM-bl assay [13]: > 10 µg/mL
IC80 in TZM-bl assay [13]: > 10 µg/mL
IC50 in TZM-bl assay [14]: > 10 µg/mL
IC80 in TZM-bl assay [14]: > 10 µg/mL
IC50 in TZM-bl assay [15]: > 10 µg/mL
IC80 in TZM-bl assay [15]: > 10 µg/mL
IC50 in TZM-bl assay [16]: 0.041 µg/mL
IC80 in TZM-bl assay [16]: 0.299 µg/mL
IC50 in TZM-bl assay [17]: 9 µg/mL
IC80 in TZM-bl assay [17]: > 10 µg/mL
IC50 in TZM-bl assay [18]: 0.008 µg/mL
IC80 in TZM-bl assay [18]: 0.034 µg/mL
IC50 in TZM-bl assay [19]: > 10 µg/mL
IC80 in TZM-bl assay [19]: > 10 µg/mL
IC50 in TZM-bl assay [20]: 5.18 µg/mL
IC80 in TZM-bl assay [20]: > 10 µg/mL
IC50 in TZM-bl assay [21]: > 10 µg/mL
IC80 in TZM-bl assay [21]: > 10 µg/mL
IC50 in TZM-bl assay [22]: 0.647 µg/mL
IC80 in TZM-bl assay [22]: 4.68 µg/mL
IC50 in TZM-bl assay [23]: 0.013 µg/mL
IC80 in TZM-bl assay [23]: 0.046 µg/mL
IC50 in TZM-bl assay [24]: > 10 µg/mL
IC80 in TZM-bl assay [24]: > 10 µg/mL
IC50 in TZM-bl assay [25]: > 10 µg/mL
IC80 in TZM-bl assay [25]: > 10 µg/mL
IC50 in TZM-bl assay [26]: > 10 µg/mL
IC80 in TZM-bl assay [26]: > 10 µg/mL
IC50 in TZM-bl assay [27]: 0.003 µg/mL
IC80 in TZM-bl assay [27]: 0.006 µg/mL
IC50 in TZM-bl assay [28]: 0.068 µg/mL
IC80 in TZM-bl assay [28]: 0.231 µg/mL
IC50 in TZM-bl assay [29]: 0.007 µg/mL
IC50 in TZM-bl assay [30]: 0.002 µg/mL
IC80 in TZM-bl assay [30]: 0.008 µg/mL
IC50 in TZM-bl assay [31]: 6.21 µg/mL
IC80 in TZM-bl assay [31]: > 10 µg/mL
IC50 in TZM-bl assay [32]: 0.082 µg/mL
IC80 in TZM-bl assay [32]: 0.363 µg/mL
IC50 in TZM-bl assay [33]: > 10 µg/mL
IC80 in TZM-bl assay [33]: > 10 µg/mL
IC50 in TZM-bl assay [34]: > 10 µg/mL
IC80 in TZM-bl assay [34]: > 10 µg/mL
IC80 in TZM-bl assay [35]: 0.085 µg/mL
IC50 in TZM-bl assay [36]: 0.288 µg/mL
IC80 in TZM-bl assay [36]: 2.46 µg/mL
IC50 in TZM-bl assay [37]: 0.024 µg/mL
IC80 in TZM-bl assay [37]: 0.073 µg/mL
IC50 in TZM-bl assay [38]: 0.013 µg/mL
IC80 in TZM-bl assay [38]: 0.041 µg/mL
IC50 in TZM-bl assay [39]: > 10 µg/mL
IC80 in TZM-bl assay [39]: > 10 µg/mL
IC50 in TZM-bl assay [40]: 0.062 µg/mL
IC80 in TZM-bl assay [40]: 0.531 µg/mL

From patent publication US11325966
